Measurements from the supplement of paper PMC10567573.

B1: TCAP (parent)
chain: YQRVLPLPIFTPAKMGATKEERED

Variants of: B1
Test: protein stability index of a GFP-peptide fusion (GPS, HEK-293T) (PSI 1-6); higher = more stable
Settings: c terminus: a fixed tail appended
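Also: lentivirally expressed fusions sorted by FACS into six bins by GFP to DsRed ratio, PSI derived from sequencing read proportions per bin multiplied by bin number.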

Protein stability index, by site and new letter:
P6: N 1.35 | H 2.11 | T 2.05 | E 2.22 | D 2.62 | L 1.73 | R 1.66 | I 2.19
A13: H 1.69 | P 3.8 | L 1.76 | N 1.67 | K 2.44 | M 2.31 | I 2.18 | Q 1.95 | Y 1.86 | E 2.9 | G 2.38 | D 2.95 | T 2.64 | F 2.04 | R 2.44 | C 1.72 | S 2.53 | V 2.2 | W 2.02
A17: L 1.67 | R 2.05 | V 1.76 | C 2.24 | M 2.38 | D 2.1 | G 1.72 | Y 1.89 | I 1.84 | P 1.97 | W 2.11 | E 2.07 | N 2.08 | Q 1.86 | F 1.74 | K 2.21 | T 1.78 | H 2.06 | S 2.02
M15: C 2.12 | F 2.14 | L 2.42 | Q 2.26 | W 1.72 | G 2.31 | P 2.69 | S 2.92 | D 2.23 | Y 2.21 | H 2.57 | K 2.38 | A 2.38 | N 2.38 | E 2.64 | T 2.05 | I 2.1 | R 2.21 | V 2.39
E23: G 2 | I 2.3 | F 1.64 | A 2.02 | C 2.19 | K 1.87 | D 2.04 | H 2.72
P12: H 3.12 | A 3.44 | Y 2.74 | M 2.91 | F 2.98 | G 3.11 | Q 3.84 | K 3.2 | E 3.02 | C 2.16 | I 3.48 | S 3.2 | N 2.82 | W 1.94 | L 2.64 | T 3.26 | D 2.92 | R 3.47 | V 3.07
T11: D 3.96 | M 2.08 | W 2.25 | K 3.63 | I 2.68 | N 3.49 | L 2.71 | Q 3.44 | Y 2.62 | F 2.25 | A 1.87 | S 2.36 | R 3.21 | G 3.12 | V 2.67 | P 3.31 | H 3.49 | E 2.52 | C 1.79
K19: C 1.78 | Y 2.01 | T 2.12 | G 2.42 | H 1.8 | S 2.08 | E 2.09 | M 2.5 | R 2.02 | F 1.93 | I 2.06 | P 2.21 | V 1.63 | Q 1.91 | A 2.02 | L 1.8 | W 1.81 | D 2.03 | N 2.1
P8: E 2.46 | D 1.57 | V 2 | R 1.88 | K 2.18 | W 2.73 | Q 2.12 | N 2.11 | H 2.15 | T 2.32 | Y 2.51 | G 1.37 | L 1.64 | M 2.36 | A 1.96 | I 2.15 | C 2.62 | F 1.45
K14: E 2.63 | M 1.77 | I 1.61 | V 2.78 | A 1.64 | Q 2.32 | F 2.04 | D 3.13 | G 2.65 | L 1.81 | S 2.46 | T 1.99 | W 1.59 | R 2.21 | H 2.18 | Y 1.97 | N 2.32 | C 1.69 | P 2.62
